Experimental data as given in US20240209078A1 (Amgen, published 2024).
Numbering of substitutions follows the chain as printed. Numbers in names are those of the source.

Legend:
[1] = target: human CDH3 (Cadherin-3, P-Cadherin) (human, UniProt P22223 108-829); assay: cell-based or functional assay
human MSLN (mesothelin) = human MSLN (mesothelin) (human, UniProt Q13421 37-598); assay: cell-based or functional assay
human CDH3 [2] = target: T1, human CDH3 (human, UniProt P22223 108-829); assay: cell-based or functional assay
human CDH3 [3] = target: T1, human CDH3; assay: cell-based affinity, flow cytometry on target-transfected CHO cells, nonlinear regression (one site - specific binding), mean of three measurements
Experimental: (§1) Cell-based affinity of CDH3 MSLN dual targeting antigen-binding molecules was determined by nonlinear regression (one site—specific binding) analysis. CHO cells expressing human CDH3, cyno CDH3, human MSLN or cyno MSLN were incubated with decreasing concentrations of CDH3 MSLN dual targeting antigen-binding molecules (12.5 nM on CDH3 cell lines, 800 nM on MSLN cell lines, step 1:2, 11 steps) for 16 h at 4° ° C. Bound CDH3 MSLN dual targeting antigen-binding molecules were detected with Alexa Fluor 488-conjugated AffiniPure Fab Fragment Goat Anti-Human IgG (H+L). Fixed cells were stained with DRAQ5, Far-Red Fluorescent Live-Cell Permeant DNA Dye and signals were detected by fluorescence cytometry. Respective equilibrium dissociation constant (Kd) values were calculated with the one site—specific binding evaluation tool of the GraphPad Prism software. Mean Kd values and affinity gaps were calculated with Microsoft Excel.
(§2) Cell-based affinities of CDH3 MSLN dual targeting antigen-binding molecules on target-transfected CHO cells were determined by nonlinear regression (one site - specific binding) analysis. Mean Kd values were calculated from three independent measurements. Affinity gaps were determined by dividing the cyno Kd by the human Kd.

cyno CDH3 = target: T2, cyno CDH3 (cyno); assay: as above
T2 construct: whole, on cells; On transfected CHO cells; also called cy CDH3
Experimental: as §1, §2

cyno MSLN = target: T3, cyno MSLN (cyno); assay: as above
T3 construct: whole, on cells; On transfected CHO cells; also called cy MSLN
Experimental: as §1, §2

human CDH3 [4] = target: T1, human CDH3; assay: cell-based or functional assay; remark: listed apart in the source

B1: MS 15-B12 CC × 6H10.09 × (G4) × heFc (A) * heFc (B) × (G4) × CH3 15-E11 CC × 6H10.09 (bispecific antibody)
chain 1: not shown
chain 2: DKTHTCPPCPAPELLGGPSVFLFPPKPKDTLMISRTPEVTCVVVDVSHEDPEVKFNWYVDGVEVHNAKTKPCEEQYGSTYRCVSVLTVLHQDWLNGKEYKCKVSNKALPAPIEKTISKAKGQPREPQVYTLPPSRKEMTKNQVSLTCLVKGFYPSDIAVEWESNGQPENNYKTTPPVLKSDGSFFLYSKLTVDKSRWQQGNVFSCSVMHEALHNHYTQKSLSLSPGKGGGGQVQLVQSGAEVKKPGASVKVSCKASGYTFTNYWMNWVRQAPGQCLEWMGNIAYGVKGTNYNQKFQGRVTMTVDTSSSTAYMELSRLRSDDTAVYYCATRYFYVMDYWGQGTLVTVSSGGGGSGGGGSGGGGSDIQMTQSPSSLSASVGDRVTITCRASQDISNYLNWYQQKPGKVPKLLIYYTSRLHSGVPSRFSGSGSGTDFTLTISSLQPEDVATYYCVQYAQFPLTFGCGTKVEIKSGGGGSEVQLVESGGGLVQPGGSLKLSCAASGFTFNKYAMNWVRQAPGKGMEWVARIRSKYNNYATYYADAVKDRFTISRDDSKNTLYLQMNNLKTEDTAVYYCVRAGNFGSSYISYFAYWGQGTLVTVSSGGGGSGGGGSGGGGSQTVVTQEPSLTVSPGGTVTITCGSSTGAVTSGNYPNWIQKKPGQAPRGLIGGTKFLAPGTPARFSGSLEGGKAALTLSGVQPEDEAEYYCVLYYSNRWVFGSGTKLTVL
- cytotoxicity EC50, GSU KO MSLN cells [1]: 533 pM
- cytotoxicity EC50, GSU KO CDH3 cells (human MSLN (mesothelin)): 391 pM

B2: CH3 15-E11 CC × I2L × G4 × scFc × G4 × MS 15-B12 CC × I2L_GQ (bispecific antibody)
chain: QVQLVQSGAEVKKPGASVKVSCKASGYTFTNYWMNWVRQAPGQCLEWMGNIAYGVKGTNYNQKFQGRVTMTVDTSSSTAYMELSRLRSDDTAVYYCATRYFYVMDYWGQGTLVTVSSGGGGQGGGGQGGGGQDIQMTQSPSSLSASVGDRVTITCRASQDISNYLNWYQQKPGKVPKLLIYYTSRLHSGVPSRFSGSGSGTDFTLTISSLQPEDVATYYCVQYAQFPLTFGCGTKVEIKSGGGGQEVQLVESGGGLVQPGGSLKLSCAASGFTFNKYAMNWVRQAPGKGMEWVARIRSKYNNYATYYADAVKDRFTISRDDSKNTLYLQMNNLKTEDTAVYYCVRAGNFGSSYISYFAYWGQGTLVTVSSGGGGQGGGGQGGGGQQTVVTQEPSLTVSPGGTVTITCGSSTGAVTSGNYPNWIQKKPGQAPRGLIGGTKFLAPGTPARFSGSLEGGKAALTLSGVQPEDEAEYYCVLYYSNRWVFGSGTKLTVLGGGGCPPCPAPELLGGPSVFLFPPKPKDTLMISRTPEVTCVVVDVSHEEPEVKFNWYVDGVEVHNAKTKPCEEQYGSTYRCVSVLTVLHQDWLNGKEYKCKVSNKALPAPIEKTISKAKGQPREPQVYTLPPSREEMTKNQVSLTCLVKGFYPSDIAVEWESNGQPENNYKTTPPVLDSDGSFFLYSKLTVDKSRWQQGNVFSCSVMHEALHNHYTQKSLSLSPGKGGGGQGGGGQGGGGQGGGGQGGGGQGGGGQCPPCPAPELLGGPSVFLFPPKPKDTLMISRTPEVTCVVVDVSHEEPEVKFNWYVDGVEVHNAKTKPCEEQYGSTYRCVSVLTVLHQDWLNGKEYKCKVSNKALPAPIEKTISKAKGQPREPQVYTLPPSREEMTKNQVSLTCLVKGFYPSDIAVEWESNGQPENNYKTTPPVLDSDGSFFLYSKLTVDKSRWQQGNVFSCSVMHEALHNHYTQKSLSLSPGKGGGGQVQLQESGPGLVKPSETLSLTCTVSGGSISSSSYFWGWIRQPPGKCLEWIGNIYYSGSSNYNPSLKSRVTISVDTSKNQFSLKLSSVTAADTAVYYCARLPRGDRDAFDIWGQGTMVTVSSGGGGQGGGGQGGGGQDIVMTQSPSSLSASVGDRVTITCRASQGISNYLAWYQQKPGKVPKLLIYAASTLQSGVPSRFSGSGSGTDFTLTISSLQPEDFATYYCQQSYSTPFTFGCGTKVEIKSGGGGQEVQLVESGGGLVQPGGSLKLSCAASGFTFNKYAMNWVRQAPGKGMEWVARIRSKYNNYATYYADAVKDRFTISRDDSKNTLYLQMNNLKTEDTAVYYCVRAGNFGSSYISYFAYWGQGTLVTVSSGGGGQGGGGQGGGGQQTVVTQEPSLTVSPGGTVTITCGSSTGAVTSGNYPNWIQKKPGQAPRGLIGGTKFLAPGTPARFSGSLEGGKAALTLSGVQPEDEAEYYCVLYYSNRWVFGSGTKLTVL
notes: Single chain: CDH3 scFv - CD3 scFv (I2L) - scFc - MSLN scFv - CD3 scFv (I2L)
- EC50 (cytotoxicity) on double positive cells; column head printed 'EC50 CHO hu CDH3 (+) & MSLN (+)'; value is that of HCT 116 wt in Table 46 (human CDH3 [2]): 0.071 pM
- EC50 (cytotoxicity); column head printed 'EC50 CHO hu MSLN (+)', table title HCT 116; value is that of HCT 116 KO MSLN in Table 46 (human CDH3 [2]): 8.7 pM
- fold gap of column 2 (HCT 116 KO MSLN by Table 46) against double positive cells (human CDH3 [2]): 122 fold
- Kd (human CDH3 [3]): 160 pM
- Kd (cyno CDH3): 190 pM
- Kd (cyno MSLN): 51400 pM
- EC50 on HCT 116 KO MSLN (cytotoxicity; cells CDH3+, MSLN-) (human CDH3 [4]): 8.7 pM
- EC50 on HCT 116 wt (cytotoxicity; cells CDH3+, MSLN+) (human CDH3 [4]): 0.07 pM

B3: CH3 15-E11_1_VAG_CC × I2L × G4 × scFc × G4 × MS 15-B12 CC × I2L clipopt_DI (bispecific antibody)
chain: B2 chain with K56A
notes: Single chain
- Kd (human CDH3 [3]): 510 pM
- Kd (cyno CDH3): 570 pM
- Kd (cyno MSLN): 50300 pM
